The results in this text go back to article PMC2753297.

The experiment concerns the target T1, ADAM10 (immunoprecipitated with anti-ADAM10 from HEK293T cells), O14672.
T1 chain: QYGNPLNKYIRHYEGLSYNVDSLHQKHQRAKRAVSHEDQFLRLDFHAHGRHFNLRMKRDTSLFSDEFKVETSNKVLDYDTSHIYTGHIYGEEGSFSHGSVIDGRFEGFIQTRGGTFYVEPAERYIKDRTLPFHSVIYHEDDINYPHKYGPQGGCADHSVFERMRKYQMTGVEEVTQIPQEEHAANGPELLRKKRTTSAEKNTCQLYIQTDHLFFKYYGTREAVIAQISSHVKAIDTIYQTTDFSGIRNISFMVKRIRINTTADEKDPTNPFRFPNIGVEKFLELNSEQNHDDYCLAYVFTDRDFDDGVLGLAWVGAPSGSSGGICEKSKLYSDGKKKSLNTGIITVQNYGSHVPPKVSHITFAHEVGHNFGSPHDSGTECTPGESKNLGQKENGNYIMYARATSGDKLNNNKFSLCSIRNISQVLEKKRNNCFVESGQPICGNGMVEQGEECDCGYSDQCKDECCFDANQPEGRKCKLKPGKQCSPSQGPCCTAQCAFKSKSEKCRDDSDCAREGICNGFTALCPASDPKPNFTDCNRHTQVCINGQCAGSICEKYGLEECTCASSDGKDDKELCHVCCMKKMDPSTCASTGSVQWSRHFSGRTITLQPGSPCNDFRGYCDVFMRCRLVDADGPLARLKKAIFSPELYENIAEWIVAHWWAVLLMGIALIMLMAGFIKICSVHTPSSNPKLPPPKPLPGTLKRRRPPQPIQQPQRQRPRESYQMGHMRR
Description: co-immunoprecipitation (ADAM10 IP, EphA3 immunoblot, quantified). As to conditions: chain shown with the change; ephrin-A5-treated EphA3-transfected cells; n = 2 experiments; parent: est. 1.1; read off a plot; scale: ratio of EphA3 co-IP/lysate, EphA3[2YE] as internal reference.

B1: Wt EphA3-GFP, P29320 Y596E; Y602E; K653M (protein)
chain: ELIPQPSNEVNLLDSKTIQGELGWISYPSHGWEEISGVDEHYTPIRTYQVCNVMDHSQNNWLRTNWVPRNSAQKIYVELKFTLRDCNSIPLVLGTCKETFNLYYMESDDDHGVKFREHQFTKIDTIAADESFTQMDLGDRILKLNTEIREVGPVNKKGFYLAFQDVGACVALVSVRVYFKKCPFTVKNLAMFPDTVPMDSQSLVEVRGSCVNNSKEEDPPRMYCSTEGEWLVPIGKCSCNAGYEERGFMCQACRPGFYKALDGNMKCAKCPPHSSTQEDGSMNCRCENNYFRADKDPPSMACTRPPSSPRNVISNINETSVILDWSWPLDTGGRKDVTFNIICKKCGWNIKQCEPCSPNVRFLPRQFGLTNTTVTVTDLLAHTNYTFEIDAVNGVSELSSPPRQFAAVSITTNQAAPSPVLTIKKDRTSRNSISLSWQEPEHPNGIILDYEVKYYEKQEQETSYTILRARGTNVTISSLKPDTIYVFQIRARTAAGYGTNSRKFEFETSPDSFSISGESSQVVMIAISAAVAIILLTVVIYVLIGRFCGYKSKHGADEKRLHFGNGHLKLPGLRTEVDPHTEEDPTQAVHEFAKELDATNISIDKVVGAGEFGEVCSGRLKLPSKKEISVAIMTLKVGYTEKQRRDFLGEASIMGQFDHPNIIRLEGVVTKSKPVMIVTEYMENGSLDSFLRKHDAQFTVIQLVGMLRGIASGMKYLSDMGYVHRDLAARNILINSNLVCKVSDFGLSRVLEDDPEAAYTTRGGKIPIRWTSPEAIAYRKFTSASDVWSYGIVLWEVMSYGERPYWEMSNQDVIKAVDEGYRLPPPMDCPAALYQLMLDCWQKDRNNRPKFEQIVSILDKLIRNPGSLKIITSAAARPSNLLLDQSNVDITTFRTTGDWLNGVWTAHCKEIFTGVEYSSCDTIAKISTDDMKKVGVTVVGPQKKIISSIKALETQSKNGPVPV
Consider B1, for which the response came out at 0.42.

B2: Wt EphA3-GFP, P29320 Y596E; Y602E (protein)
chain: ELIPQPSNEVNLLDSKTIQGELGWISYPSHGWEEISGVDEHYTPIRTYQVCNVMDHSQNNWLRTNWVPRNSAQKIYVELKFTLRDCNSIPLVLGTCKETFNLYYMESDDDHGVKFREHQFTKIDTIAADESFTQMDLGDRILKLNTEIREVGPVNKKGFYLAFQDVGACVALVSVRVYFKKCPFTVKNLAMFPDTVPMDSQSLVEVRGSCVNNSKEEDPPRMYCSTEGEWLVPIGKCSCNAGYEERGFMCQACRPGFYKALDGNMKCAKCPPHSSTQEDGSMNCRCENNYFRADKDPPSMACTRPPSSPRNVISNINETSVILDWSWPLDTGGRKDVTFNIICKKCGWNIKQCEPCSPNVRFLPRQFGLTNTTVTVTDLLAHTNYTFEIDAVNGVSELSSPPRQFAAVSITTNQAAPSPVLTIKKDRTSRNSISLSWQEPEHPNGIILDYEVKYYEKQEQETSYTILRARGTNVTISSLKPDTIYVFQIRARTAAGYGTNSRKFEFETSPDSFSISGESSQVVMIAISAAVAIILLTVVIYVLIGRFCGYKSKHGADEKRLHFGNGHLKLPGLRTEVDPHTEEDPTQAVHEFAKELDATNISIDKVVGAGEFGEVCSGRLKLPSKKEISVAIKTLKVGYTEKQRRDFLGEASIMGQFDHPNIIRLEGVVTKSKPVMIVTEYMENGSLDSFLRKHDAQFTVIQLVGMLRGIASGMKYLSDMGYVHRDLAARNILINSNLVCKVSDFGLSRVLEDDPEAAYTTRGGKIPIRWTSPEAIAYRKFTSASDVWSYGIVLWEVMSYGERPYWEMSNQDVIKAVDEGYRLPPPMDCPAALYQLMLDCWQKDRNNRPKFEQIVSILDKLIRNPGSLKIITSAAARPSNLLLDQSNVDITTFRTTGDWLNGVWTAHCKEIFTGVEYSSCDTIAKISTDDMKKVGVTVVGPQKKIISSIKALETQSKNGPVPV
For B2, the response is 1.
